This note sets out measurements from patent US20210171647A1 (WUXI BIOLOGICS SHANGHAI, published 2021).

In experiment [1] the target is T1, human OX40, full-length, on cells (human, UniProt P43489 29-277).
T1 construct: whole, on cells; also called hPro1; cell surface human OX40
T1 sequence (looked up): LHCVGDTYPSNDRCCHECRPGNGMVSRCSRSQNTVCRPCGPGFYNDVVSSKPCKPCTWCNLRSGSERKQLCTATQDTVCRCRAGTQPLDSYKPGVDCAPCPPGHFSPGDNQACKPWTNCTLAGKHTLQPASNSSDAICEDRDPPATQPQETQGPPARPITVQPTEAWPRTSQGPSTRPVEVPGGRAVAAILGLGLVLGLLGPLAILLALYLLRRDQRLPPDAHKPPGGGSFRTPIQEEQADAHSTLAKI
The experiment can be described thus: FACS, transfected 293F cells, antibody 1 ug/mL. In general terms: Flow cytometry measures light scatter and fluorescence of single cells or particles in a stream.
Protocol: (§1) Binding of antibodies to chimeric OX40 variants was analyzed by flow cytometry. […] Cells were analyzed using flow cytometer.

The target of experiment [2] is T2, mouse OX40 (mPro1) on transfected 293F cells (mouse, UniProt P47741 20-272).
T2 construct: whole, on cells
T2 sequence (looked up): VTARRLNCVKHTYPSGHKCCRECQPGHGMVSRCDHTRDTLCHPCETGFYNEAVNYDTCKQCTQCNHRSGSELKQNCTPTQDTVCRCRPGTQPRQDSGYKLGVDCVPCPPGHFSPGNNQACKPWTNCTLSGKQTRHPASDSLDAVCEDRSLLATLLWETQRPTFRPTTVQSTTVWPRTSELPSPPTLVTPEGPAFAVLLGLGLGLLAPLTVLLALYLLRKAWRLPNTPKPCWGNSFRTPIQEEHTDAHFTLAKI
The experiment in a line: FACS, transfected 293F cells, antibody 1 ug/mL.
Protocol: as §1

The target of experiment [3] is T3, human OX40 extracellular domain (ECD) protein (human, UniProt P43489 29-214).
T3 construct: extracellular domain; also called human OX40 ECD; human OX40 protein; not shown: human Fc or His tag
T3 sequence (looked up): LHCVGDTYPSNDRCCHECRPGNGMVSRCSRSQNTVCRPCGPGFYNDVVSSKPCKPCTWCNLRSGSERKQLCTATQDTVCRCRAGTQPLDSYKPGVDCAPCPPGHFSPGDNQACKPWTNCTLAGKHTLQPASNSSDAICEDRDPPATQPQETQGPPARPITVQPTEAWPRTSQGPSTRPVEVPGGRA
The experiment in a line: epitope binning by competition against labelled BMK10 on human OX40; the antibody named in the legend box is titrated; the text describes an ELISA, the axis on the sheet reads MFI.

In experiment [4] the target is T1, human OX40, full-length, on cells. The experiment can be described thus: flow cytometry, CHO-K1 cells expressing human OX40, MESF beads.
Protocol: (§2) CHO-K 1 cells expressing human OX40 were transferred in to 96-well U-bottom plates (Corning) at a density of 5×10⁴ cells/mL. Testing antibodies were 1:2 serially diluted in wash buffer (1×PBS/1% BSA) and incubated with cells at 4° C. for 1 h. The secondary antibody goat anti-human IgG Fc FITC (3.2 moles FITC per mole IgG, Jackson Immunoresearch Lab) was added and incubated with cells at 4° C. in the dark for half an hour. The cells were then washed once, resuspended in 1×PBS/1% BSA and analyzed by flow cytometry (BD). Fluorescence intensity was converted to bound molecules/cell based on the quantitative beads Quantum™ MESF Kits (Bangs Laboratories, Inc.). The KD value of each antibody was calculated using Graphpad Prism5.
Experiment [5] has as its target T3, human OX40 extracellular domain (ECD) …. The experiment can be described thus: competition ELISA: human OX40 ECD coated, antibody titrated in a mix with a constant concentration of OX40L, bound OX40L detected at OD450. Background: ELISA stands for enzyme-linked immunosorbent assay.
Protocol: Briefly, plates (Nunc) were coated with human OX40 ECD at 1 μg/mL overnight at 4° C. […] After washing, TMB substrate was added and the interaction was stopped by 2M HCl.
Experiment [6] shares this target. The experiment can be described thus: SPR, Biacore T200, antibody captured, OX40 as analyte.
Protocol: Antibodies were characterized for affinity and binding kinetics to OX40 by SPR assay using Biacore T200 (GE). […] Then various concentrations of human or monkey OX40 and running buffer were flowed through the sensor chip at a flow rate of 30 μL/min for an association phase of 180 s, followed by dissociation. The association and dissociation curve was fit by 1:1 Langmuir binding model using the BIAevaluation T200 software.
Experiment [7] has the same target. The experiment in a line: epitope binning by competition against labelled BMK7 on human OX40; the antibody named in the legend box is titrated; the text describes an ELISA, the axis on the sheet reads MFI.
A further experiment has as its target T4, human CD40 ECD (human, UniProt P25942 21-193).
T4 construct: extracellular domain
The experiment can be described thus: ELISA on coated ECD, one antibody concentration (not given).

A further experiment addresses T5, human CD271 ECD (human, UniProt P08138 29-250).
T5 construct: extracellular domain
T5 sequence (looked up): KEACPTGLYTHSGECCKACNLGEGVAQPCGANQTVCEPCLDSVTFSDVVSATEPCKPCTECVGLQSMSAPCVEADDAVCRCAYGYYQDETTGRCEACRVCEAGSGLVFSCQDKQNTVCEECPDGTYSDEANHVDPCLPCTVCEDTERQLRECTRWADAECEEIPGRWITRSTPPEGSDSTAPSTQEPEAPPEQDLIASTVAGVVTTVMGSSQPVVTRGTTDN
Described as above.

Another experiment deals with T6, human 4-1BB (CD137) ECD (human, UniProt Q07011 24-186).
T6 construct: extracellular domain
T6 sequence (Q07011 24-186): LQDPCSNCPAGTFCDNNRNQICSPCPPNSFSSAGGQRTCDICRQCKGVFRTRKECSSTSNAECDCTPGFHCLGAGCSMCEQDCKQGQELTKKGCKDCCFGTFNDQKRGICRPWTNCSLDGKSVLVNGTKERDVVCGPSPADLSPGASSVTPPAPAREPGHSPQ
Described as above.

Experiment [8] has as its target T7, rhesus monkey OX40 on transfected 293F cells (rhesus monkey).
T7 construct: whole, on cells
The experiment in a line: flow cytometry on rhesus monkey OX40 transfected 293F cells.
Protocol: Testing antibodies were serially diluted in wash buffer (1×PBS/1% BSA) and incubated with cells at 4° C. for 1 h. After washing with 1×PB S/1% BSA, the secondary antibody goat anti-human IgG Fc-PE (Jackson ImmunoResearch Lab) was applied and incubated with cells at 4° C. in the dark for 1 h. The cells were then washed and resuspended in 1×PB S/1% BSA or fixed with 4% paraformaldehyde, and then analyzed by flow cytometry (BD).

For experiment [9], the target named is T1, human OX40, full-length, on cells. The experiment in a line: flow cytometry on human OX40 transfected CHO-K1 cells.
Protocol: as §2
The target is the same in experiment [10]. The experiment in a line: flow cytometry on activated human CD4+ T cells.
Protocol: Briefly, human OX40-expressing CHO-K1 cells or activated human CD4⁺ T cells were transferred into 96-well U-bottom plates (Corning) at a density of 1×10⁵ cells/well. Testing antibodies were serially diluted in wash buffer (1×PBS/1% BSA) and incubated with cells at 4° C. for 1 h. After washing with 1×PBS/1% BSA, the secondary antibody goat anti-human IgG Fc-PE (Jackson ImmunoResearch Lab) was applied and incubated with cells at 4° C. in the dark for 1 h. The cells were then washed and resuspended in 1×PBS/1% BSA or fixed with 4% paraformaldehyde, and then analyzed by flow cytometry (BD).
The target is the same in experiment [11]. The experiment in a line: flow cytometry, MFI against antibody concentration; neither the legend nor paragraph 266 names the cells, target taken as cell-surface human OX40 because the antibodies are anti-OX40.

T4 sequence (P25942 21-193): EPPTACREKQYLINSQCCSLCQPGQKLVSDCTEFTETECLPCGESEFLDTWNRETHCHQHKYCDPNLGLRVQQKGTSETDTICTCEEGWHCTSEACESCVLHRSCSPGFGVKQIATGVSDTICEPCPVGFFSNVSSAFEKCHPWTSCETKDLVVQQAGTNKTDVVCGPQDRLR
Protocol for human 4-1BB (CD137) ECD: (§3) Human OX40, CD40, 4-1BB (CD137) and CD271 ECD were coated on plates (Nunc) overnight at 4° C. After blocking and washing, testing antibodies were diluted in blocking buffer and added to the plates and incubated at room temperature for 1 h. The plates were then washed and subsequently incubated with secondary antibody goat anti-human IgG Fc-HRP (Bethyl) for 1 h. After washing, TMB substrate was added and the interaction was stopped by 2M HCl.
Protocol for human CD271 ECD: as §3
Protocol for human CD40 ECD: as §3

B1: 1.214.23-u1-IgG1K (antibody, V domains shown)
VH: QVQLQESGPGLVKPSGTLSLTCVVSGGSISNRNWWSWVRQPPGKGLEWIGEIFHSGNTNYNPSLKSRVTISVDKSKNQFSLKVNSVTAADTAVYYCAKSFAVALDSWGQGTLVTVSS
VL: DIQLTQSPSFLSASVGDRVTITCRASQDINSYLAWCQQKPGKAPKLLIYAASSLQSGVPSRFSGTGSGTEFTLTISSLQPEDFATYYCQQLFSYPITFGQGTRLEIK
notes: fully human IgG1, kappa
As a reminder, the Kd is a measure of binding affinity in units of concentration. By koff is commonly meant a measure of how fast the partners let go of each other. As usually defined, the kon is a measure of how fast the partners come together. Usually EC50 (read off the curve) stands for the concentration that produces a half-maximal response. With B1, the MFI in experiment [1] amounted to 8320; in [2], 49.9. Further, the “PE + %” value in [1] worked out at 89.3%; in [2] it was 0.315%. Further, the “IC50 (read off the curve)” value in [3] is roughly 4 nM; in [5], roughly 1 nM; in experiment [7], roughly 1 nM. In addition, the Kd in [4] was 0.067 nM; in experiment [6], 0.502 nM. For the same molecule, the koff in [6] is 0.000214 s⁻¹. Moreover, the kon in experiment [6] was 426000 M⁻¹ s⁻¹. For the same molecule, the binding result in the experiment with human CD40 ECD, with human CD271 ECD and in the experiment with human 4-1BB (CD137) ECD was “no binding” throughout. The results for the “EC50 (read off the curve)” value in [8] and in experiment [9] were roughly 3 nM and roughly 0.6 nM, respectively.

B2: 1.7.10-u1-IgG1K (antibody, V domains shown)
VH: QVHLVESGGGLVKPGGSLRLSCAASGFTFSDYYMSWIRQAPGKGLEWVSYISGSGNTIYYADSVKGRFTISRDNAKNSLYLQMNSLRADDTAVYFCARERGAAGTGWFDPWGQGTLVTVSS
VL: DIQMTQSPSSVSASVGDRVTITCRASQGISSWLAWYQQKPGKAPKLLIYAASSLQGGVPSRFSGSGSGTDFTLTISSLQPEDFATYYCQQVNSFPWTFGQGTKVEIK
notes: fully human IgG1, kappa
As for B2, the “EC50 (read off the curve)” value is 1 to 2 nM in experiment [10] and roughly 1 nM in experiment [9]. In addition, the “IC50 (read off the curve)” value in experiment [5] is roughly 3 nM; in experiment [7], roughly 4 nM. Moreover, binding in experiment [6] was put at a Kd of 1.49 nM. This molecule also displayed a koff in experiment [6] of 0.00128 s⁻¹. The same molecule returned a kon in experiment [6] of 860000 M⁻¹ s⁻¹. In addition, the binding result with human CD40 ECD, with human CD271 ECD and with human 4-1BB (CD137) ECD was “no binding” throughout.

B3: 1.186.19-u1-IgG1K (antibody, V domains shown)
VH: QVHLVESGGGLVKPGGSLRLSCAASGFTFSDYYMGWIRQAPGQGLEWVSYISGSGNTIYYADSVKGRFTISRDNAKNSLYLQMNSLRADDTAVYFCAKERGAAGAGWFDPWGQGTLVTVSS
VL: DIQMTQSPSSVSASVGDRVTITCRASQGISSWLAWYQQKPGKAPKLLIYAASSLQGGVPSRFSGSGSGTDFTLTISSLQPEDFATYHCQQVNSFPWTFGQGTKVEIK
notes: fully human IgG1, kappa
B3: the “EC50 (read off the curve)” value in experiment [10] is roughly 2 nM. Further, the “IC50 (read off the curve)” value was roughly 3 nM in experiment [5] and roughly 4 nM in [7]. In experiment [6], this molecule registered a Kd of 1.16 nM. Also, the koff in [6] came out at 0.000451 s⁻¹. Further, the kon in experiment [6] was found to be 390000 M⁻¹ s⁻¹. For the same molecule, the binding result with human CD40 ECD, with human CD271 ECD and in the experiment with human 4-1BB (CD137) ECD was “no binding” in each case.

B4: 1.62.3-u1-IgG1K (antibody, V domains shown)
VH: QVQLQESGPGLVKPSQTLSLTCTVSGGSISNGGYYWSWIRQHPGKGLEWIGYIYYSGSTYYNPSLKSRVTISVDTSKNQFSLKLSSVTAADTAVYYCARDEWELRGFDYWGQGTLVTVSS
VL: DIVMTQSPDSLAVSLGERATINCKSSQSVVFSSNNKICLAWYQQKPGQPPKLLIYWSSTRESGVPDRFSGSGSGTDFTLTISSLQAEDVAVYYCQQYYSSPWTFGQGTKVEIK
notes: fully human IgG1, kappa
With B4, in experiment [5], the “IC50 (read off the curve)” value was roughly 1 nM. Besides, in experiment [11], the “EC50 (read off the curve)” value is roughly 0.8 nM. In [6], this molecule returned a Kd of 0.461 nM, a koff of 0.000243 s⁻¹ and a kon of 526000 M⁻¹ s⁻¹. In addition, the binding result with human CD40 ECD is “no binding”. In the experiment with human CD271 ECD, the binding result is recorded as “no binding”. In addition, the binding result with human 4-1BB (CD137) ECD is recorded as “no binding”.

B5: 1.62.3-u1-3-IgG1K (antibody, V domains shown)
VH: QVQLQESGPGLVKPSQTLSLTCTVSGGSISNAGYYWSWIRQHPGKGLEWIGYIYYSGSTYYNPSLKSRVTISVDTSKNQFSLKLSSVTAADTAVYYCARDEWELRGFDYWGQGTLVTVSS
VL: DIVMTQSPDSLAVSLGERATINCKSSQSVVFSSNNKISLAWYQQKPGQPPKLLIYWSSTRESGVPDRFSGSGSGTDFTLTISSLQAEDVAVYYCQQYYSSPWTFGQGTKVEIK
notes: fully human IgG1, kappa; PTM variant of 1.62.3-u1-IgG1K (G to A in CDRH1, C to S in CDRL1)
As for B5, the “EC50 (read off the curve)” value in experiment [10] was roughly 0.8 nM; in experiment [11], roughly 2 nM; in experiment [9], roughly 0.9 nM. The Kd in experiment [6] was 2.08 nM. The same molecule showed a koff in [6] of 0.00145 s⁻¹. Besides, in experiment [6], the kon turned out to be 697000 M⁻¹ s⁻¹.
